Experiment [1] relates to rSARS-CoV-2/mCherry-Nluc. Type of experiment: in vivo, K18 hACE2 transgenic mice. The conditions noted are these: for virus titration in lungs (viral titers by plaque assay): 2.5 mg/kg i.p. once daily, compared to the mock groups, FIG. 8A; for body weight and survival: mouse, in vivo.
Experiment [2] deals with TSE-induced lung injury (TSE-LI). Description: chronic tobacco smoke exposure induced lung injury (TSE-LI) in wild-type mice. The class given is in vivo. The note with it: for MUC5AC (M5Ac) expression (lung mRNA by qPCR, IHC) / FOXA2 mRNA (qPCR) / surfactant protein-C (SP-C) mRNA (qPCR): WT mice with TSE-LI, 2.5 mg/kg IP 5 days a week for 4 weeks; for MUC5AC (M5Ac) expression (lung mRNA by qPCR, IHC): FIG. 12A, 12D; for FOXA2 mRNA (qPCR): FIG. 12B; for surfactant protein-C (SP-C) mRNA (qPCR): FIG. 12C; for chronic TS exposure (TSE) induced lung injury (TSE-LI): WT mice, 2.5 mg/kg IP 5 days a week for 4 weeks after 16 weeks TSE. The method, then:
Recombinant full-length U5a protein (U5a^FL), extracellular domain of U5a^FL (U5a^ECD) and U5a^ECD-specific monoclonal antibody (U5a^mAb, the 17C9 1 anti-U5a antibody comprising the sequences of SEQ ID NOs. 204 and 211) mitigated chronic TS exposure (TSE) induced lung injury (TSE-LI) in wild-type (WT) mice. WT mice were kept in ambient AIR or exposed to tobacco smoke (TSE) for 4 h/day 5 days a week. After 16 weeks, WT mice with TSE-LI were left untreated (None) or treated with 2.5 mg/kg of U5a^FL, U5a^ECD and U5amAb 5 days a week for 4 weeks by IP injection. Total lung RNA were analyzed for MUC5AC (M5Ac) (FIG. 12A), FOXA2 (FIG. 12B) and surfactant protein-C(SP-C) (FIG. 12C) mRNA by qPCR. Lung sections of mice treated as in FIG. 12A were subjected to IHC analysis for M5Ac (FIG. 12D). We found increased expression of U5a in AECs and ATII cells in lungs of patients with COPD and mice with TSE-LI. […] In addition, increased surfactant protein-C(SP-C) indicates improved survival of ATII cells, which is otherwise reduced due to increased TSE-induced senescence and apoptosis of ATII cells seen in mice with TSE-LI left untreated.

B1: M9^FL: recombinant full length MEGF9 (multiple EGF-like-domains-9); full-length human MEGF9 is SEQ ID NO: 1 (protein, listed as Homo sapiens)
chain: MNGGAERAMRSLPSLGGLALLCCAAAAAAAAVASAASAGNVTGGGGAAGQVDASPGPGLRGEPSHPFPRATAPTAQAPRTGPPRATVHRPLAATSPAQSPETTPLWATAGPSSTTFQAPLGPSPTTPPAAERTSTTSQAPTRPAPTTLSTTTGPAPTTPVATTVPAPTTPRTPTPDLPSSSNSSVLPTPPATEAPSSPPPEYVCNCSVVGSLNVNRCNQTTGQCECRPGYQGLHCETCKEGFYLNYTSGLCQPCDCSPHGALSIPCNSSGKCQCKVGVIGSICDRCQDGYYGFSKNGCLPCQCNNRSASCDALTGACLNCQENSKGNHCEECKEGFYQSPDATKECLRCPCSAVTSTGSCSIKSSELEPECDQCKDGYIGPNCNKCENGYYNFDSICRKCQCHGHVDPVKTPKICKPESGECINCLHNTTGFWCENCLEGYVHDLEGNCIKKEVILPTPEGSTILVSNASLTTSVPTPVINSTFTPTTLQTIFSVSTSENSTSALADVSWTQFNIIILTVIIIVVVLLMGFVGAVYMYREYQNRKLNAPFWTIELKEDNISFSSYHDSIPNADVSGLLEDDGNEVAPNGQLTLTTPIHNYKA
Consider B1, for which, in experiment [1], the “virus titration in lungs (viral titers by plaque assay)” value was “clear trend of decreased viral titers”; the “body weight and survival” value is given as “remarkable improvement”.

B2: M^9ECD: extracellular domain (ECD) fragment of recombinant M9 (MEGF9); ECD of MEGF9 given as SEQ ID NO: 102 (protein, listed as Homo sapiens)
chain: MGWSCIILFLVATATGVHSAAVASAASAGNVTGGGGAAGQVDASPGPGLRGEPSHPFPRATAPTAQAPRTGPPRATVHRPLAATSPAQSPETTPLWATAGPSSTTFQAPLGPSPTTPPAAERTSTTSQAPTRPAPTTLSTTTGPAPTTPVATTVPAPTTPRTPTPDLPSSSNSSVLPTPPATEAPSSPPPGHQWPVAKMPQKYLGKYACESNLKSKYLPLTQPVMNLRVSEAVKTEYVCNCSVVGSLNVNRCNQTTGQCECRPGYQGLHCETCKEGFYLNYTSGLCQPCDCSPHGALSIPCNSSGKCQCKVGVIGSICDRCQDGYYGFSKNGCLPCQCNNRSASCDALTGACLNCQENSKGNHCEECKEGFYQSPDATKECLRCPCSAVTSTGSCSIKSSELEPECDQCKDGYIGPNCNKCENGYYNFDSICRKCQCHGHVDPVKTPKICKPESGECINCLHNTTGFWCENCLEGYVHDLEGNCIKKEVILPTPEGSTILVSNASLTTSVPTPVINSTFTPTTLQTIFSVSTSENSTSALADVSWTQFN
As to B2, in experiment [1], the “virus titration in lungs (viral titers by plaque assay)” value is “clear trend of decreased viral titers”; the “body weight and survival” value is “remarkable improvement”.

B3: U5a^FL: Recombinant full-length U5a protein (uncoordinated receptor 5A); full-length human UNC5A is SEQ ID NO: 5 (protein, listed as Homo sapiens)
chain: MAVRPGLWPALLGIVLAAWLRGSGAQQSATVANPVPGANPDLLPHFLVEPEDVYIVKNKPVLLVCKAVPATQIFFKCNGEWVRQVDHVIERSTDGSSGLPTMEVRINVSRQQVEKVFGLEEYWCQCVAWSSSGTTKSQKAYIRIAYLRKNFEQEPLAKEVSLEQGIVLPCRPPEGIPPAEVEWLRNEDLVDPSLDPNVYITREHSLVVRQARLADTANYTCVAKNIVARRRSASAAVIVYVDGSWSPWSKWSACGLDCTHWRSRECSDPAPRNGGEECQGTDLDTRNCTSDLCVHTASGPEDVALYVGLIAVAVCLVLLLLVLILVYCRKKEGLDSDVADSSILTSGFQPVSIKPSKADNPHLLTIQPDLSTTTTTYQGSLCPRQDGPSPKFQLTNGHLLSPLGGGRHTLHHSSPTSEAEEFVSRLSTQNYFRSLPRGTSNMTYGTFNFLGGRLMIPNTGISLLIPPDAIPRGKIYEIYLTLHKPEDVRLPLAGCQTLLSPIVSCGPPGVLLTRPVILAMDHCGEPSPDSWSLRLKKQSCEGSWEDVLHLGEEAPSHLYYCQLEASACYVFTEQLGRFALVGEALSVAAAKRLKLLLFAPVACTSLEYNIRVYCLHDTHDALKEVVQLEKQLGGQLIQEPRVLHFKDSYHNLRLSIHDVPSSLWKSKLLVSYQEIPFYHIWNGTQRYLHCTFTLERVSPSTSDLACKLWVWQVEGDGQSFSINFNITKDTRFAELLALESEAGVPALVGPSAFKIPFLIRQKIISSLDPPCRRGADWRTLAQKLHLDSHLSFFASKPSPTAMILNLWEARHFPNGNLSQLAAAVAGLGQPDAGLFTVSEAEC
Take B3: in experiment [2], the “MUC5AC (M5Ac) expression (lung mRNA by qPCR, IHC)” value is “significantly inhibits”; the “FOXA2 mRNA (qPCR)” value is on record as “inducing”; the “surfactant protein-C (SP-C) mRNA (qPCR)” value is reported as “increased”; the “chronic TS exposure (TSE) induced lung injury (TSE-LI)” value is “mitigated”.

B4: U5a^mAb: U5a^ECD-specific monoclonal antibody, the 17C9 1 anti-U5a antibody comprising the sequences of SEQ ID NOs. 204 and 211 (antibody)
heavy: QVQLQQPGAELVKPGASVKMSCKASGYTFTSYWITWVKQRPGQGLEWIGDIYPGSGSTTYNEKFKSKATLTVDTSSSTAYMQLSSLTSEDSAVYYCARRHYGSSSAWFAYWGQGTLVTVSAAKTTPPSVYPLAPGSAAQTNSMVTLGCLVKGYFPEPVTVTWNSGSLSSGVHTFPAVLQSDLYTLSSSVTVPSSTWPSQTVTCNVAHPASSTKVDKKIVPRDCGCKPCICTVPEVSSVFIFPPKPKDVLTITLTPKVTCVVVDISKDDPEVQFSWFVDDVEVHTAQTKPREEQINSTFRSVSELPIMHQDWLNGKEFKCRVNSAAFPAPIEKTISKTKGRPKAPQVYTIPPPKEQMAKDKVSLTCMITNFFPEDITVEWQWNGQPAENYKNTQPIMDTDGSYFVYSKLNVQKSNWEAGNTFTCSVLHEGLHNHHTEKSLSHSPGK
light: DIQMTQTTSSLSASLGDRVTISCSASQGIRNYLNWYQQKPDGTVKLLIYYTSSLHSGVPSRFSGSGSGTDYSLTISNLEPEDIATYYCQQYSKLPFTFGSGTKLEIKRADAAPTVSIFPPSSEQLTSGGASVVCFLNNFYPKDINVKWKIDGSERQNGVLNSWTDQDSKDSTYSMSSTLTLTKDEYERHNSYTCEATHKTSTSPIVKSFNRNEC
In the case of B4, in experiment [2], the “MUC5AC (M5Ac) expression (lung mRNA by qPCR, IHC)” value is listed as “significantly inhibits”; the “FOXA2 mRNA (qPCR)” value is given as “inducing”; the “surfactant protein-C (SP-C) mRNA (qPCR)” value is recorded as “increased”; the “chronic TS exposure (TSE) induced lung injury (TSE-LI)” value is reported as “mitigated”.
